Test results published in publication doi:10.1101/2022.09.20.508729, “Loss of the first β-strand of human prion protein generates an aggregation-competent partially “open” form” (bioRxiv, 2022).

Target: the molecule itself
Experiment: thioflavin T fluorescence of fibril formation

B1: PrP^23 (residues 23-231 of human PrP) (natural protein)
chain: not shown
notes: also called full-length WT PrP
- binding result: binds
